The data set deals with the molecule itself. Kind of data set: co-IP; direct competition: HEK293T transfected with three constructs, Human and Chimp prey with the same epitope tag and Human or Chimp bait with the complementary tag; IP against the bait tag, western against the prey tag; both directions of HA/V5 tagging.

The record followed here is PMC5705219, “A map of human PRDM9 binding provides evidence for novel behaviors of PRDM9 and other zinc-finger proteins in meiosis” (eLife, 2017).

B1: full-length human PRDM9 (B allele), C-terminally tagged with HA or V5 (natural protein)
chain: not shown
notes: synthetic cDNA of the full-length 2,685 bp transcript with 218 synonymous base changes in the zinc-finger exon; An HA and a V5 version were made; tag cassette is linker-TwinStrep-linker-HA/V5-linker-P2A between PRDM9 and YFP; also called Human-HA; Human-V5; source: HEK293T, transfected (pLENTI CMV/TO Puro DEST, FuGENE-HD), in lysate; not shown: HA or V5, C-terminal, kept
Turning to B1, the “fold pull-down efficiency against Chimp PRDM9 prey on the same Human bait” value was > 2 fold.
